{"source": "patent US20180207087A1", "about": "“KIT AND AESTHETIC SYSTEM FOR PREVENTION OF SKIN AGING” (priority 2017, published 2018)", "tested_on": "adipose tissue", "assay_type": "in vivo, human", "excerpt": "Thus, by adjusting the single dose of hyaluronidase in the injection composition for topical fat removal of the present invention to 300 IU to 600 IU, the side effects from using the drug are minimized and yet fat removal over a wide area can be carried out using a minimal volume. It has been shown in clinical trials that at a hyaluronidase activity of 300 IU and an injection volume of 1 cc, the diameter of the diffusion range for the injection composition is about 1 cm. Thus, by injecting the composition at narrow intervals between injection points of 0.5 to 2 cm, even fat removal as well as collagen production by skin stimulation can be facilitated."}
{"substance": "hyaluronidase", "values": [{"measurement": "amount at which adipose cells are excessively hydrolyzed, causing concerns about dimpling or subcutaneous bleeding", "setting": "human, in vivo, sc", "result": "above 600 IU"}, {"measurement": "minimum amount of hyaluronidase exhibiting efficacy", "setting": "single dose", "result": 300, "unit": "IU"}]}
